Paper PMC12307460
Values joined by “and” are separate entries in the source; they are usually repeats but may differ in a detail not shown here. Equal values may be shown once.

Legend:
[1] = target: MERS-CoV spike (S) protein of strain NRCE-HKU270 (clade C) (MERS-CoV strain NRCE-HKU270 (clade C))
[2] = target: MERS-CoV spike (S) protein of strain MERS-CoV/KOR/KNIH/002_05_2015 (clade B) (MERS-CoV strain MERS-CoV/KOR/KNIH/002_05_2015 (clade B))
[3] = target: MERS-CoV spike (S) protein of strain HCoV-EMC/2012 (clade A) (MERS-CoV strain HCoV-EMC/2012 (clade A)) (UniProt K9N5Q8)
UniProt K9N5Q8, sequence (K9N5Q8 18-1353): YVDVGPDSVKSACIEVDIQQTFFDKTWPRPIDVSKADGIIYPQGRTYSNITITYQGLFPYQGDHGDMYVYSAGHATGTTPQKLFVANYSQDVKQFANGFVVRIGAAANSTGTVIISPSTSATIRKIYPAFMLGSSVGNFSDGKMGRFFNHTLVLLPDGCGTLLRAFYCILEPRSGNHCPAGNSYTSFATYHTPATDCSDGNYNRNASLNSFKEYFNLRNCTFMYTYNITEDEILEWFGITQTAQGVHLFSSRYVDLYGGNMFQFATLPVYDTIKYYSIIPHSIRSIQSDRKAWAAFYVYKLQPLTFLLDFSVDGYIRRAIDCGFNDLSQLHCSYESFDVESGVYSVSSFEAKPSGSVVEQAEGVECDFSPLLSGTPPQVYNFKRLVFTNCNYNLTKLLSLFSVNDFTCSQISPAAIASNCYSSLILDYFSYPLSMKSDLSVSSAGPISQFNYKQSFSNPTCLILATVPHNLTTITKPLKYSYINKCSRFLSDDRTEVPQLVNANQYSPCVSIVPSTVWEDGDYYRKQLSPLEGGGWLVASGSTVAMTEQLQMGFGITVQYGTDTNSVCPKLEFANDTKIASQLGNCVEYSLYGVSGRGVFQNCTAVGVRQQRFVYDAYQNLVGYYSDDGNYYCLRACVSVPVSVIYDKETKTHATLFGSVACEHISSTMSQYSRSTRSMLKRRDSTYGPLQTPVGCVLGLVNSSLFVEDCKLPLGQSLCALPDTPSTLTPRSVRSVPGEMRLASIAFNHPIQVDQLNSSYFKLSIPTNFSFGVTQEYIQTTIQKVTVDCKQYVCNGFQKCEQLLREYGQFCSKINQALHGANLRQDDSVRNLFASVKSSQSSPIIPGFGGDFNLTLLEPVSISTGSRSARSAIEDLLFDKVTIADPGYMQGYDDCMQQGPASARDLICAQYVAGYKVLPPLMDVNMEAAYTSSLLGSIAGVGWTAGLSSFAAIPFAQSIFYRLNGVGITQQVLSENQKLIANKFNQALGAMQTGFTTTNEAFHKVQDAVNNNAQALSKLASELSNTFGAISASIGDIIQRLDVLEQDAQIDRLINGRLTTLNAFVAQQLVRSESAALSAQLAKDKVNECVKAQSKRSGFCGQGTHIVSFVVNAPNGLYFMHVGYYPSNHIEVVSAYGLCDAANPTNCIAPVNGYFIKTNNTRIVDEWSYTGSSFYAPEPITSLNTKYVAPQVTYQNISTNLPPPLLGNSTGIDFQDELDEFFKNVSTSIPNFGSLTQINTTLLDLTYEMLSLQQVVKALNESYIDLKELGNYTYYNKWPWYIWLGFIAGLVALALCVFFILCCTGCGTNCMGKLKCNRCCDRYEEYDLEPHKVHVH

[4] = target: spike (S) protein of pangolin merbecovirus MjHKU4r-CoV (MjHKU4r-CoV (pangolin HKU4r-CoV))
[5] = target: spike (S) protein of bat merbecovirus BtCoV/Ii/GD/2014-422 (BtCoV/Ii/GD/2014-422 (bat MERSr-CoV))

Substance	IC50 of neutralisation of S pseudovirus, average [1]	IC50 of neutralisation of S pseudovirus, one of three assays [1]	IC50 of neutralisation of S pseudovirus, average [2]	IC50 of neutralisation of S pseudovirus, average [3]	IC50 of neutralisation of S pseudovirus, one of three assays [3]	IC50 of neutralisation of S pseudovirus, average [4]	IC50 of neutralisation of S pseudovirus, one of three assays [4]	IC50 of neutralisation of S pseudovirus, average [5]	IC50 of neutralisation of S pseudovirus, one of three assays [5]	IC50 of neutralisation of S pseudovirus, one of three assays [2]
7D10 (antibody)	> 50 µg/mL	> 50 µg/mL	7.5 µg/mL	50 µg/mL	50 µg/mL	> 50 µg/mL	> 50 µg/mL	23 µg/mL	–	–
CDC2-C2 (antibody)	0.12 µg/mL	–	0.17 µg/mL	0.041 µg/mL	–	> 5 µg/mL	> 5 µg/mL	> 5 µg/mL	> 5 µg/mL	–
D12 (antibody)	0.085 µg/mL	0.095 µg/mL and 0.098 µg/mL and 0.061 µg/mL	0.19 µg/mL	0.068 µg/mL	0.087 µg/mL and 0.077 µg/mL and 0.041 µg/mL	> 5 µg/mL	> 5 µg/mL	> 5 µg/mL	> 5 µg/mL	0.25 µg/mL and 0.18 µg/mL and 0.14 µg/mL
G4 (antibody)	9.3 µg/mL	5.2 µg/mL and 8.7 µg/mL and 14 µg/mL	7.7 µg/mL	8.1 µg/mL	5.9 µg/mL and 6.4 µg/mL and 12 µg/mL	> 25 µg/mL	> 25 µg/mL	11 µg/mL	–	–
JC57-14 (antibody)	0.055 µg/mL	0.066 µg/mL and 0.059 µg/mL and 0.039 µg/mL	0.064 µg/mL	0.037 µg/mL	0.039 µg/mL and 0.023 µg/mL and 0.047 µg/mL	> 5 µg/mL	> 5 µg/mL	> 5 µg/mL	> 5 µg/mL	0.09 µg/mL and 0.043 µg/mL and 0.06 µg/mL
MCA1 (antibody)	0.067 µg/mL	0.084 µg/mL and 0.047 µg/mL and 0.071 µg/mL	0.096 µg/mL	0.059 µg/mL	–	> 5 µg/mL	> 5 µg/mL	> 5 µg/mL	> 5 µg/mL	0.082 µg/mL and 0.06 µg/mL and 0.15 µg/mL
m336 (antibody)	0.36 µg/mL	–	0.85 µg/mL	0.14 µg/mL	–	> 5 µg/mL	> 5 µg/mL	> 5 µg/mL	> 5 µg/mL	–
